The test deals with type-2 neurotensin receptor of rats (rNT-R2) (rat). The experiment in a line: displacement of 0.2 nM 125I-neurotensin from COS-3 cells transfected with rNT-R2.

One may read the IC50 as the midpoint of a concentration-inhibition curve. In turn, “neuromedin N (from UniProt P30990) (peptide)” showed an IC50 of 5.1 nM.

Source of the values: US6022856.
